From PMC9947420

Target: GST-tagged PEX5-binding domain of X. laevis PEX14 (amino acids 19-78) (Xenopus laevis)
Assay: SEC; Superdex 200 HiLoad 26/600 PG, XBHS buffer with 1 mM DTT; retention volume between 180 and 190 mL

With “GST-tagged PEX5-binding domain of X. laevis PEX14 (amino acids 19-78) (domain or fragment)” as the substance, how does the stoichiometry N read?
Its stoichiometry N is 2.
